Measurements published in US6586222 (CHIRON, dated 2003).
The star is where a group is joined. P(O)(OPh)2 = diphenyl phosphonate replacing C-terminal COOH, O=P(Oc1ccccc1)(Oc1ccccc1)*; Boc = CC(C)(C)OC(=O)*

T1: purified, activated recombinant human PR-3 (from proPR-3 secreted by Sf9 insect cells, activated with DPPI) (human, UniProt P24158 28-256)
T1 sequence: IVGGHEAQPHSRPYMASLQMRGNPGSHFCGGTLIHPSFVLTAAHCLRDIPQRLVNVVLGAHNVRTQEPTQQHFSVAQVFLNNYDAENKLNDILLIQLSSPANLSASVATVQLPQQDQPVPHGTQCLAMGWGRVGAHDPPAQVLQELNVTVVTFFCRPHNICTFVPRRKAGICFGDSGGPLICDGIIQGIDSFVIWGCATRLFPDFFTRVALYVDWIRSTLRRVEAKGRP


Target: T1, purified, activated recombinant human …
Assay: cell-based or functional assay

IC50 of residual enzyme activity (Boc-Ala-ONp substrate, 1 hour at 25° C.) [µM] | Binder
~10 | Boc-Ala-Pro-Val-{P(O)(OPh)2} [Boc-Ala-Pro-Val-p(OPh)2]
~0.4 | Boc-Val-Pro-Val-{P(O)(OPh)2} [Boc-Val-Pro-Val-p(OPh)2]
